Usually Kd stands for the constant that tells how readily two partners part at equilibrium. A lower Kd goes with a tighter complex.

Sequences and labels used below:
B2: ubiquitin-specific protease 5, wild type (enzyme, human, UniProt P45974 1-858, looked up)
chain: MAELSEEALLSVLPTIRVPKAGDRVHKDECAFSFDTPESEGGLYICMNTFLGFGKQYVERHFNKTGQRVYLHLRRTRRPKEEDPATGTGDPPRKKPTRLAIGVEGGFDLSEEKFELDEDVKIVILPDYLEIARDGLGGLPDIVRDRVTSAVEALLSADSASRKQEVQAWDGEVRQVSKHAFSLKQLDNPARIPPCGWKCSKCDMRENLWLNLTDGSILCGRRYFDGSGGNNHAVEHYRETGYPLAVKLGTITPDGADVYSYDEDDMVLDPSLAEHLSHFGIDMLKMQKTDKTMTELEIDMNQRIGEWELIQESGVPLKPLFGPGYTGIRNLGNSCYLNSVVQVLFSIPDFQRKYVDKLEKIFQNAPTDPTQDFSTQVAKLGHGLLSGEYSKPVPESGDGERVPEQKEVQDGIAPRMFKALIGKGHPEFSTNRQQDAQEFFLHLINMVERNCRSSENPNEVFRFLVEEKIKCLATEKVKYTQRVDYIMQLPVPMDAALNKEELLEYEEKKRQAEEEKMALPELVRAQVPFSSCLEAYGAPEQVDDFWSTALQAKSVAVKTTRFASFPDYLVIQIKKFTFGLDWVPKKLDVSIEMPEELDISQLRGTGLQPGEEELPDIAPPLVTPDEPKGSLGFYGNEDEDSFCSPHFSSPTSPMLDESVIIQLVEMGFPMDACRKAVYYTGNSGAEAAMNWVMSHMDDPDFANPLILPGSSGPGSTSAAADPPPEDCVTTIVSMGFSRDQALKALRATNNSLERAVDWIFSHIDDLDAEAAMDISEGRSAADSISESVPVGPKVRDGPGKYQLFAFISHMGTSTMCGHYVCHIKKEGRWVIYNDQKVCASEKPPKDLGYIYFYQRVAS
notes: ubiquitin-specific protease 5 (USP5), human; No removal of the His tag is described; also called USP5; USP5^WT; source: E. coli BL21 (DE3), purified (Ni-NTA, SEC)
B3: catalytically inactive USP5 C335A (enzyme, human, UniProt P45974 1-858, looked up)
chain: MAELSEEALLSVLPTIRVPKAGDRVHKDECAFSFDTPESEGGLYICMNTFLGFGKQYVERHFNKTGQRVYLHLRRTRRPKEEDPATGTGDPPRKKPTRLAIGVEGGFDLSEEKFELDEDVKIVILPDYLEIARDGLGGLPDIVRDRVTSAVEALLSADSASRKQEVQAWDGEVRQVSKHAFSLKQLDNPARIPPCGWKCSKCDMRENLWLNLTDGSILCGRRYFDGSGGNNHAVEHYRETGYPLAVKLGTITPDGADVYSYDEDDMVLDPSLAEHLSHFGIDMLKMQKTDKTMTELEIDMNQRIGEWELIQESGVPLKPLFGPGYTGIRNLGNSAYLNSVVQVLFSIPDFQRKYVDKLEKIFQNAPTDPTQDFSTQVAKLGHGLLSGEYSKPVPESGDGERVPEQKEVQDGIAPRMFKALIGKGHPEFSTNRQQDAQEFFLHLINMVERNCRSSENPNEVFRFLVEEKIKCLATEKVKYTQRVDYIMQLPVPMDAALNKEELLEYEEKKRQAEEEKMALPELVRAQVPFSSCLEAYGAPEQVDDFWSTALQAKSVAVKTTRFASFPDYLVIQIKKFTFGLDWVPKKLDVSIEMPEELDISQLRGTGLQPGEEELPDIAPPLVTPDEPKGSLGFYGNEDEDSFCSPHFSSPTSPMLDESVIIQLVEMGFPMDACRKAVYYTGNSGAEAAMNWVMSHMDDPDFANPLILPGSSGPGSTSAAADPPPEDCVTTIVSMGFSRDQALKALRATNNSLERAVDWIFSHIDDLDAEAAMDISEGRSAADSISESVPVGPKVRDGPGKYQLFAFISHMGTSTMCGHYVCHIKKEGRWVIYNDQKVCASEKPPKDLGYIYFYQRVAS
notes: ubiquitin-specific protease 5 (USP5), human, catalytic cysteine mutated; The His tag is used for detection in the TR-FRET assay; also called His-USP5^C335A; source: E. coli BL21 (DE3), purified (Ni-NTA, SEC)

Details in all cases: both partners purified
In data set [1] the target is B2. Put plainly: ITC; ITC200 at 298 K; 50 mM HEPES, 100 mM NaCl, 1 mM TCEP, pH 7.5; SDE2 construct or monoubiquitin titrated into USP5 (10-12 µM); duplicate. In general terms: Isothermal titration calorimetry measures the heat released or taken up as one component is titrated into another.
The target in data set [2] is B3. The description is as above.
For data set [3], the target named is T1, monoubiquitin (UniProt P0CG48 1-76).
T1 construct: ubiquitin, the mature monomer
Described as above.

In data set [4] the target is B2. Put plainly: thermal shift assay; USP5^WT incubated with ABP for 1 h at 37 °C in PBS, 1 mM DTT, then SYPRO orange, 10-95 °C; Tm of the USP5-ABP covalent complex; triplicate.

B1: SDE2 N-terminal ubiquitin-like domain, SDE2UBL(1-77) (domain or fragment, human, UniProt Q6IQ49 1-77, looked up)
chain: MAEAAALVWIRGPGFGCKAVRCASGRCTVRDFIHRHCQDQNVPVENFFVKCNGALINTSDTVQHGAVYSLEPRLCGG
notes: Silencing Defective 2 (SDE2), human, residues 1-77 (ubiquitin-like domain ending in the Gly-Gly motif); source: E. coli BL21 (DE3), purified (Ni-NTA, SUMO protease cleavage, SEC); not shown: His, N-terminal, cleaved; SUMO, N-terminal, cleaved
For the molecule B1, the values for the Kd in data set [1] and in data set [2] were 26.6 ± 5 µM and 1670 nM, respectively.

B2: in data set [3], the binding result is “binds”.

For the molecule B3, in data set [3], the binding result was “binds”.

B4: HA-SDE2UBL-PA, activity-based probe derived from SDE2UBL (domain or fragment, human, UniProt Q6IQ49 1-76, looked up)
chain: MAEAAALVWIRGPGFGCKAVRCASGRCTVRDFIHRHCQDQNVPVENFFVKCNGALINTSDTVQHGAVYSLEPRLCG
modifications: Gly77 replaced with a propargyl electrophilic warhead (C-terminal propargylamine)
notes: Silencing Defective 2 (SDE2), human, residues 1-76 (SDE2UBL with Gly77 truncated); Forms a covalent adduct with the catalytic cysteine of reactive enzymes; also called HA-SDE2UBL-ABP; SDE2UBL-ABP; not shown: HA, N-terminal, kept
With B4, the “Tm of the covalent complex” value in data set [4] was 56.4 ± 0.2 °C.
